B1: Apoptosis regulator ced-9 (Caenorhabditis elegans), P41958 (parent)
chain: MTRCTADNSLTNPAYRRRTMATGEMKEFLGIKGTEPTDFGINSDAQDLPSPSRQASTRRMSIGESIDGKINDWEEPRLDIEGFVVDYFTHRIRQNGMEWFGAPGLPCGVQPEHEMMRVMGTIFEKKHAENFETFCEQLLAVPRISFSLYQDVVRTVGNAQTDQCPMSYGRLIGLISFGGFVAAKMMESVELQGQVRNLFVYTSLFIKTRIRNNWKEHNRSWDDFMTLGKQMKEDYERAEAEKVGRRKQNRRWSMIGAGVTAGAIGIVGVVVCGRMMFSLK
partner: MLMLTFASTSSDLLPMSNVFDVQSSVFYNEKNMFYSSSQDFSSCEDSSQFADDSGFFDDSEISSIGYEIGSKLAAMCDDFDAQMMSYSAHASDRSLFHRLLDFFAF
B2: Apoptosis regulator ced-9 (Caenorhabditis elegans), P41958 (parent)
chain: B1 chain
partner: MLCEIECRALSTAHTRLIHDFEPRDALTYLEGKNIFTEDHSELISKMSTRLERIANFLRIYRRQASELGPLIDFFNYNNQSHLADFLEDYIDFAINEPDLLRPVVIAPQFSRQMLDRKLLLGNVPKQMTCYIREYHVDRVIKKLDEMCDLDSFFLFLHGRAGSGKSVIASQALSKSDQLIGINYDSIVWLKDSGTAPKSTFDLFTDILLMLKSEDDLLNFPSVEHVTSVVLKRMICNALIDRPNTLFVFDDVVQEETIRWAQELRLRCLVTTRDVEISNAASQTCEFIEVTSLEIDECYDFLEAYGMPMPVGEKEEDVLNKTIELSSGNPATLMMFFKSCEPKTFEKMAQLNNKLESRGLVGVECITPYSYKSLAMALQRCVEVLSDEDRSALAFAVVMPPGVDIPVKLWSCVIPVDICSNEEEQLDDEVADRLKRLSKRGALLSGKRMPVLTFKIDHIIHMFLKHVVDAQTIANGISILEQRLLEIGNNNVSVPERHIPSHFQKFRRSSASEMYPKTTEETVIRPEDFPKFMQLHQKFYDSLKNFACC

Variants of: B1
Conditions: with egl1_caeel egl-1, O61667

effect of a mutation on the interaction	Variant
with no effect	MTRCTADNSLTNPAYRRRTMATGEMKEFLGIKGTEPTDFGINSDAQDLPSPSRQASTRRMSIGESIDGKINDWEEPRLDIEGFVVDYFTHRIRQNGMEWFGAPGLPCGVQPEHEMMRVMGTIFEKKHAENFETFCEQLLAVPRISFSLYQDVVRTVGNAQTDQCPMSYERLIGLISFGGFVAAKMMESVELQGQVRNLFVYTSLFIKTRIRNNWKEHNRSWDDFMTLGKQMKEDYERAEAEKVGRRKQNRRWSMIGAGVTAGAIGIVGVVVCGRMMFSLK [G169E]

Variants of: B1
Conditions: with egl1_caeel egl-1, O61667
Remark: another data set of the same source

effect of a mutation on the interaction	Variant
decreasing interaction strength	MTRCTADNSLTNPAYRRRTMATGEMKEFLGIKGTEPTDFGINSDAQDLPSPSRQASTRRMSIGESIDGKINDWEEPRLDIEGFVVDYFTHRIRQNGMEWFGAPGLPCGVQPEHEMMRVMGTIFEKKHAENFETFCEQLLAVPRISFSLYQDVVRTVGNAQTDQCPMSYERLIGLISFGGFVAAKMMESVELQGQVRNLFVYTSLFIKTRIRNNWKEHNRSWDDFMTLGKQMKEDYERAEAEKVGRRKQNRRWSMIGAGVTAGAIGIVGVVVCGRMMFSLK [G169E]

Variants of: B2
Conditions: with ced4_caeel ced-4, P30429

effect of a mutation on the interaction	Variant
with no effect	MTRCTADNSLTNPAYRRRTMATGEMKEFLGIKGTEPTDFGINSDAQDLPSPSRQASTRRMSIGESIDGKINDWEEPRLDIEGFVVDYFTHRIRQNGMEWFGAPGLPCGVQPEHEMMRVMGTIFEKKHAENFETFCEQLLAVPRISFSLYQDVVRTVGNAQTDQCPMSYERLIGLISFGGFVAAKMMESVELQGQVRNLFVYTSLFIKTRIRNNWKEHNRSWDDFMTLGKQMKEDYERAEAEKVGRRKQNRRWSMIGAGVTAGAIGIVGVVVCGRMMFSLK [G169E]
